Measurements as given in patent US20180193456A1 (HENLIUS BIOTECH, published 2018).
Blank lines part the entries; values can stand above or below the binder they belong to.

Key:
[1] = biological target: T1, VEGFR2-D5-7-AP fusion protein (UniProt P35968 421-764); assay: ELISA: antibody captured with sheep anti-human Fd, VEGFR2-D5-7-AP added, pNPP, A405
T1 construct: domain: domains 5-7; also called domains 5-7 of VEGFR2; not shown: alkaline phosphatase (AP) fusion partner

[2] = biological target: T2, VEGFR2-AP (UniProt P35968 20-764); assay: competition ELISA: antibody pre-incubated with VEGFR2-AP, mixture added to VEGF-coated wells, A405; blocked ligand: VEGF
T2 construct: also called AP-conjugated VEGFR2; AP-conjugated VEGFR; not shown: alkaline phosphatase (AP)

[3] = biological target: T3, VEGFR2 (UniProt P35968 20-764, limits assumed); assay: SPR; antigen construct and format not stated
T3 construct: The SPR paragraphs name neither antigen construct nor format

[4] = biological target: T2, VEGFR2-AP; assay: ELISA, antibody captured with anti-Fd, VEGFR2-AP added (axis printed OD450)
[5] = biological target: T4, Mouse VEGFR2-Fc (mouse, UniProt P35918 20-762, limits assumed); assay: ELISA, mouse VEGFR2-Fc coated, anti-human kappa-HRP, A450
T4 construct: not shown: Fc

[6] = biological target: T5, VEGFR2-Fc (UniProt P35968 20-764, limits assumed); assay: ELISA, VEGFR2-Fc coated, anti-human kappa-HRP, OD450
T5 construct: also called biotinylated VEGFR2-Fc; not shown: Fc

[7] = biological target: T2, VEGFR2-AP; assay: ELISA, antibody captured with anti-Fc, VEGFR2-AP added (axis printed OD450)
[8] = biological target: T6, recombinant human VEGFR1-Fc fusion protein (R&D Systems) (human, UniProt P17948-2 27-687, limits assumed); assay: ELISA, human VEGFR1-Fc coated, goat anti-human F(ab)'2-HRP, OD450
T6 construct: Bought; not shown: Fc

[9] = biological target: T7, human VEGFR3-Fc (R&D Systems) (human, UniProt P35916 25-776); assay: ELISA, human VEGFR3-Fc coated, goat anti-human F(ab)'2-HRP, OD450
T7 construct: Bought; not shown: Fc
T7 sequence (looked up): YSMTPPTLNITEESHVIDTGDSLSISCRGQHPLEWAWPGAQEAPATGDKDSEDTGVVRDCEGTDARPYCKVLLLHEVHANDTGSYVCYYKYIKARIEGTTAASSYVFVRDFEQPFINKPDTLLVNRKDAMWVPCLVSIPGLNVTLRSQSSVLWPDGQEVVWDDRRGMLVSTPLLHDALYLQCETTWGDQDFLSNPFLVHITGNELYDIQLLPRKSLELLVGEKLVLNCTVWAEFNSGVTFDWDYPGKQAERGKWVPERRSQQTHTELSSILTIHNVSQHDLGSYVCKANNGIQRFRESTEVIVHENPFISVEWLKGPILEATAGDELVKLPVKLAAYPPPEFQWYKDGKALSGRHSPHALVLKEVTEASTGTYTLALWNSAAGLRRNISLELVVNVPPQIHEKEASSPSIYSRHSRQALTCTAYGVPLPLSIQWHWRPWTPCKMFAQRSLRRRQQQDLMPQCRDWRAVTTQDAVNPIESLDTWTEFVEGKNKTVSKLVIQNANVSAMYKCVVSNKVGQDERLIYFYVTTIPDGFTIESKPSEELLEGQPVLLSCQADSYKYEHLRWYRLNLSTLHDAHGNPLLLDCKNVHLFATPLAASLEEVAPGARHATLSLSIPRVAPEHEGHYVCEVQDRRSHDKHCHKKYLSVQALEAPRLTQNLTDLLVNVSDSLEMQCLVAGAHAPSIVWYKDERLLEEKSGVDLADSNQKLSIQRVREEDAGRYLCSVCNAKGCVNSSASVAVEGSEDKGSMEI

T3 sequence (P35968 20-764 limits assumed): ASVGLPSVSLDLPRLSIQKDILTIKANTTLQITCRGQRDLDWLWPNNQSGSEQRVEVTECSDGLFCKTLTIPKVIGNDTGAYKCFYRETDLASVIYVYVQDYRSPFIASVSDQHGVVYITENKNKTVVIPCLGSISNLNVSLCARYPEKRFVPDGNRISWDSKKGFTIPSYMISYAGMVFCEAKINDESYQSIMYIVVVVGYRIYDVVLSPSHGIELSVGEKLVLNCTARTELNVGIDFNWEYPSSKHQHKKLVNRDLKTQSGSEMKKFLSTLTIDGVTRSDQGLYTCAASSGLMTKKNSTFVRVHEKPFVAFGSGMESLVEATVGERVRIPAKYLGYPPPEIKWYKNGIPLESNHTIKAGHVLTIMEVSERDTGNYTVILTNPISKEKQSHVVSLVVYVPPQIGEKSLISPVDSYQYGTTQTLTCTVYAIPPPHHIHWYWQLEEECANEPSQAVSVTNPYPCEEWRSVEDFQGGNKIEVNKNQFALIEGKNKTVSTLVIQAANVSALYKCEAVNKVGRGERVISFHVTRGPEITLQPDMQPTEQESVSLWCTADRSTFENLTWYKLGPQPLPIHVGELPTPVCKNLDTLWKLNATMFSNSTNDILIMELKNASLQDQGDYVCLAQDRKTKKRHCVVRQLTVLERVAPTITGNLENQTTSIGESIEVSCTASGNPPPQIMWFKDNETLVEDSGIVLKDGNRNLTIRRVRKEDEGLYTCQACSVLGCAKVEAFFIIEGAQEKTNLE
T2 sequence (P35968 20-764): as the sequence (P35968 20-764 limits assumed) above
T4 sequence (P35918 20-762 limits assumed): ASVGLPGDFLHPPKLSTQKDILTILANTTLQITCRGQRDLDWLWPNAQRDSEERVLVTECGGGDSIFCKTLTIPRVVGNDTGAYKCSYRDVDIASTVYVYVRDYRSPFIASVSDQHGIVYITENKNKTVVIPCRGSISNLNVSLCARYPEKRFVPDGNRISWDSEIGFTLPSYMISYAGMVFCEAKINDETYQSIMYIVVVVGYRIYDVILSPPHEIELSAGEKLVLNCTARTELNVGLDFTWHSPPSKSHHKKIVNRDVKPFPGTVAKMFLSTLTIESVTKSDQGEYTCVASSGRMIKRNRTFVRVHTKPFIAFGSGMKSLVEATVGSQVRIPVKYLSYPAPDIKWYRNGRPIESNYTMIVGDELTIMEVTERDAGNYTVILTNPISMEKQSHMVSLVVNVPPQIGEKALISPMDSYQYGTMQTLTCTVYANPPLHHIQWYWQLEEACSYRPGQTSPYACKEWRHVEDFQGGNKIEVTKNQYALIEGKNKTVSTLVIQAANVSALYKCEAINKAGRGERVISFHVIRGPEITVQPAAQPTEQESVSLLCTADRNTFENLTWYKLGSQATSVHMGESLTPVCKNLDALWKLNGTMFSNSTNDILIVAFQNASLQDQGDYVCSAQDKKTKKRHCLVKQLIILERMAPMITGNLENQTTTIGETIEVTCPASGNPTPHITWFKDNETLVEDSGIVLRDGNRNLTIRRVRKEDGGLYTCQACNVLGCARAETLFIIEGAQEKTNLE
T1 sequence (P35968 421-764): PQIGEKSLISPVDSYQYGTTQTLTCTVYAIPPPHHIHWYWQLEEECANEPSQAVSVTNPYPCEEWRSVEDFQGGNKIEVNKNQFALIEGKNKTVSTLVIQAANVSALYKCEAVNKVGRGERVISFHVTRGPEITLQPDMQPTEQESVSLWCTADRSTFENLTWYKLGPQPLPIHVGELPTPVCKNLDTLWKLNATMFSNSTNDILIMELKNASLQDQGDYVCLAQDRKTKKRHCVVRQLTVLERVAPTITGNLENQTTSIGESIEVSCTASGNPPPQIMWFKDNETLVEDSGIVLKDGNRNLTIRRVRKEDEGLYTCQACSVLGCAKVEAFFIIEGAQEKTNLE
T5 sequence (P35968 20-764 limits assumed): as the sequence (P35968 20-764 limits assumed) above
T6 sequence (P17948 other isoform, or with tags, fused parts or gaps limits assumed): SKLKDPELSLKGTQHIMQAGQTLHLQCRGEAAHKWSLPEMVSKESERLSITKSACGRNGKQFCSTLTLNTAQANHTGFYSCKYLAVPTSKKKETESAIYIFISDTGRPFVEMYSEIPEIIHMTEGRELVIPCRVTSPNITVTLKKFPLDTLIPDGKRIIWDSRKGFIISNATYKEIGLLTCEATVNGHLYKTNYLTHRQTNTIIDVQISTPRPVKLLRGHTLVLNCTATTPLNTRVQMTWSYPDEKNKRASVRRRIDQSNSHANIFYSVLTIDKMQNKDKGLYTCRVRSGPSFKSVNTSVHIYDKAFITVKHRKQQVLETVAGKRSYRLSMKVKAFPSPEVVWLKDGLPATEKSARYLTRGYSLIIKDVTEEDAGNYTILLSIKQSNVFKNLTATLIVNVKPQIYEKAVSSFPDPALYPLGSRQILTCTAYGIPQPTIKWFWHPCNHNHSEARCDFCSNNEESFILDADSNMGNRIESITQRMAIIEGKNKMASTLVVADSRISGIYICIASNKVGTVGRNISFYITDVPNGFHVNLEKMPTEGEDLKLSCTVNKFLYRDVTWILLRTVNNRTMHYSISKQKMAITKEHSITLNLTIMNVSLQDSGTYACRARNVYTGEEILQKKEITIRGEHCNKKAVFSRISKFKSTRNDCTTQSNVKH

binding result [1]: no binding (tested: 3 µg/mL)
IC50 (read off the curve) [2]: ~0.05 µg/mL
Kd [3]: 1.28 nM
koff [3]: 0.000962 s⁻¹
kon [3]: 752000 M⁻¹ s⁻¹
EC50 (read off the curve) [4]: ~0.6 µg/mL
binding result [5]: no binding (tested: 500 µg/mL)
EC50 (read off the curve) [6]: ~0.5 µg/mL
EC50 (read off the curve) [7]: ~0.3 µg/mL
B1: 1121B (antibody, V domains shown)
VH: EVQLVQSGGGLVKPGGSLRLSCAASGFTFSSYSMNWVRQAPGKGLEWVSSISSSSSYIYYADSVKGRFTISRDNAKNSLYLQMNSLRAEDTAVYYCARVTDAFDIWGQGTMVTVSS
VL: EIVMTQSPATLSLSPGERATLSCRASQSVSSYLAWYQQKPGQAPRLLIYDSSNRATGIPARFSGSGSGTDFTLTISSLEPEDFATYYCLQHNTFPPTFGQGTKVEIKR
notes: Anti-VEGFR2 antibody of US 2009/0306348, positive control; The entries are called variable domains but run into the start of the constant domains

binding result [5]: no binding (tested: 500 µg/mL)
binding result [8]: no binding (tested: 20 µg/mL)
EC50 (read off the curve) [9]: ~1 µg/mL
B2: 1121N (antibody, V domains shown)
VH: B1 VH
VL: DIQMTQSPSSVSASIGDRVTITCRASQGIDNWLGWYQQKPGKAPKLLIYDASNLDTGVPSRFSGSGSGTYFTLTISSLQAEDFAVYFCQQAKAFPPTFGGGTKVDIKG
notes: Anti-VEGFR2 antibody of U.S. Pat. No. 7,498,414, positive control; Entries run into the start of the constant domains
